Laboratory results taken from patent publication US20240067944A1 (published 2024).

Legend:
[1] = molecular target: T1, human plasma-derived FX (Haematologic Technologies Inc, USA) (human, UniProt P00742 41-179; P00742 183-488); assay: cell-based or functional assay
[2] = molecular target: T1, human plasma-derived FX (Haematologic …); assay: SPR, FX captured on immobilised anti-GLA-FX antibody, steady state analysis, 25 C
Procedure: Briefly, an anti-GLA-FX, prepared recombinantly as described above, was immobilised on a CM4 sensor chip or a Xantec HLC200M using standard amine coupling chemistry at pH 5. 10 nM FX (Haematologic Technologies, USA) was injected at a flow rate of 10 μL/min for 30 seconds. Subsequently 1000, 100, 10, 1, 0.1 and 0 nM of VHH polypeptide compound, according to Table 9, below were injected at a flow rate of 50 μL/min for 200 seconds to allow for binding to FX followed by a flow of 10 minutes with a running buffer (10 mM HEPES, 150 mM NaCl, 5 mM CaCl₂), 0.05% (v/v) Surfactant P20, 1 mg/mL bovine serum albumin, pH 7.4) injection allowing for dissociation from FX. The running buffer was also used for dilution of anti-FX VHH polypeptide compounds. Regeneration of the chip was achieved using a regeneration buffer consisting of 50 mM EDTA in running buffer, 30 seconds contact time, and a 30 μL/min flow rate. The binding data were collected at 25° C. and were analysed according to a 1:1 model using BiaEvaluation 4.1 supplied by the manufacturer (Biacore AB, Uppsala or Bruker Analyser).
(§1) Therefore, the reported KD values are determined based on steady state analysis.

[3] = molecular target: T2, Benefix (Pfizer Inc, USA), FIX (human, UniProt P00740 47-461); assay: SPR, FIX (Benefix) captured on immobilised anti-GLA-FIX antibody, steady state analysis, 25 C
T2 construct: Bought product; also called FIX (Benefix®)
Procedure: Briefly, anti-GLA-FIX, prepared recombinantly as described above, was immobilised on a CM4 sensor chip or a Xantec HLC200M using standard amine coupling chemistry at pH 5. FIX (10 nM) was injected at a flow rate of 10 μL/min for 1 minute. Subsequently 1000, 100, 10, 1, 0.1 and 0 nM of VHH polypeptide compound were injected at a flow rate of 30 μL/min for 4 minutes to allow for binding to the FIX (Benefix®) followed by a flow of 5 minutes running buffer (10 mM HEPES, 150 mM NaCl, 5 mM CaCl₂), 0.05% (v/v) Surfactant P20, 1 mg/mL bovine serum albumin, pH 7.4) injection allowing for dissociation from FIX. The running buffer was also used for dilution of anti-FIX VHH polypeptide compounds. Regeneration of the chip was achieved using a regeneration buffer consisting of 50 mM EDTA in running buffer, 30 seconds contact time, and a 30 μL/min flow rate. The binding data were collected at 25° C. and were analysed according to a 1:1 model using BiaEvaluation 4.1 supplied by the manufacturer (Biacore AB, Uppsala).
as §1

T1 sequence (P00742 41-179, chain 1 of 2): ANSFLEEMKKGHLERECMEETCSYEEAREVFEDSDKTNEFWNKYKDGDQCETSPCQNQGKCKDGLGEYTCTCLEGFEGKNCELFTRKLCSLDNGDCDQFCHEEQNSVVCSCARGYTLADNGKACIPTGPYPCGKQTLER
T1 sequence (P00742 183-488, chain 2 of 2): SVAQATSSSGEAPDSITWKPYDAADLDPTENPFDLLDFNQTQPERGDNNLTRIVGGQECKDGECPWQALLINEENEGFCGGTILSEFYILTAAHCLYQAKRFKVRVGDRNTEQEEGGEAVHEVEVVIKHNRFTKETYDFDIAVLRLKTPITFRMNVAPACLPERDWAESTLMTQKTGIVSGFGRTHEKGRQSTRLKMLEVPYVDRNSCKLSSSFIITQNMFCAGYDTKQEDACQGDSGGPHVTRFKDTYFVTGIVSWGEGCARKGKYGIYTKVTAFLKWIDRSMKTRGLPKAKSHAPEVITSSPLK
T2 sequence (P00740 47-461 T194A limits assumed): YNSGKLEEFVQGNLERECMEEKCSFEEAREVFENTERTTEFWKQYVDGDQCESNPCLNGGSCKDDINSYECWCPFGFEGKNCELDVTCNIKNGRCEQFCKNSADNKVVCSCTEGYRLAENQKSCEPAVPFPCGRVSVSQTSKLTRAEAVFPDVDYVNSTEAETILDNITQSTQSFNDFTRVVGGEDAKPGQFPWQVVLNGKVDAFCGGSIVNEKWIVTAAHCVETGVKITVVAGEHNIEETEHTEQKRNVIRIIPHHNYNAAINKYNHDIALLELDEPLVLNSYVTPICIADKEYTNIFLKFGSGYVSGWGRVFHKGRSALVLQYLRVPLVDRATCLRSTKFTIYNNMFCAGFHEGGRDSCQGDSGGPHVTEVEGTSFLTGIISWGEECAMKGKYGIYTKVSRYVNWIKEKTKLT

Binder | KM (nM) of FX activation by 0.1 nM FIXa on phospholipid vesicles with 5 nM compound [1] [nM] | kcat/KM (1/(min * nM)) of FX activation by 0.1 nM FIXa with 5 nM compound [1] [min⁻¹ nM⁻¹] | Kd [2] [nM] | Kd [3] [nM]
Cmpd #21 (anti-FX/anti-FIX(a) VHH polypeptide derivative) (bispecific antibody, C16 diacid protractor (P2) via linker LP1 on Cys4 and Cys6 in C-term extension (SEQ ID NO: 9)) DVQLVESGGGVVQPGGSLQLSCAASGGTKSRYAMGWFRQAPGQEREFVAAISRRGGSTNYADSVKGRFTISRDNSKNTVYLDMDDLRPEDTALYYCAADDSVGDGYLDYWGQGTLVTVSSGQAPGQEVQLVESGGGVVQPGGSLQLSCAASGRTFNIYTMSWFRQDPGQEREFVAGLRWTDSSTEYADSVKGRFTISRDNSKNTVYLQMDSLRPEDTALYYCAADRSFLFAQALGATKNYEYWGQGTLVTVSSGQACPC | 3.9 | 0.27 |  | 
Cmpd #16 (anti-FX/anti-FIX(a) VHH polypeptide derivative) (bispecific antibody, C16 diacid protractor (P2) via linker LP1 on Cys4 and Cys6 in C-term extension (SEQ ID NO: 9)) DVQLVESGGGVVQPGGSLQLSCAASGGTKRRLAMGWFRQAPGQEREWVAAISRRGGSTNYADSVKGRFTISRDNSKNTVYLDMDDLRPEDTALYYCAADDSVGDGYLDYWGQGTLVTVSSGQAPGQEVQLVESGGGVVQPGGSLRLSCAASGRYFNIYTMSWFRQDPGQEREFVAGLRWTDSSTEYADSVKGRFTISRDNSKNTVYLQMNSLRPEDTALYYCAADRSFLFAQALGATKNYEYWGQGTLVTVSSGQACPC | 7.1 | 0.14 |  | 
Cmpd #17 (anti-FX/anti-FIX(a) VHH polypeptide derivative) (bispecific antibody, C16 diacid protractor (P2) via linker LP1 on Cys4 and Cys6 in C-term extension (SEQ ID NO: 9)) DVQLVESGGGVVQPGGSLQLSCAASGGTKSRYAMGWFRQAPGQEREWVAAISRRGGSTNYADSVKGRFTISRDNSKNTVYLDMDDLRPEDTALYYCAADDSVGDGYLDYWGQGTLVTVSSGQAPGQEVQLVESGGGVVQPGGSLQLSCAASGRTFNIYTMSWFRQDPGQEREFVAGLRWTDSSTEYADSVKGRFTISRDNSKNTVYLQMDSLRPEDTALYYCAADRSFLFAQALGATKNYEYWGQGTLVTVSSGQACPC | 9 | 0.15 |  | 
Cmpd #19 (anti-FX/anti-FIX(a) VHH polypeptide derivative) (bispecific antibody, C16 diacid protractor (P2) via linker LP1 on Cys4 and Cys6 in C-term extension (SEQ ID NO :9)) DVQLVESGGGVVQPGGSLQLSCAASGGTKSRYAMGWFRQAPGQEREWVAAISRRGGSTNYADSVKGRFTISRDNSKNTVYLQMDSLRPEDTALYYCAADDSVGDGYLDYWGQGTLVTVSSGQAPGQEVQLVESGGGVVQPGGSLQLSCAASGRTFNIYTMSWFRQAPGQEREFVAGLRWTDSSTEYADSVKGRFTISRDNSKNTVYLQMDSLRPEDTALYYCAADRSFLFAQALGATKNYEYWGQGTLVTVSSGQACPC | 8.2 | 0.3 |  | 
Cmpd #14 (anti-FX/anti-FIX(a) VHH polypeptide derivative) (bispecific antibody, C16 diacid protractor (P2) via linker LP1 on Cys4 and Cys6 in C-term extension (SEQ ID NO: 9), Single chain of two VHH: anti-FX (N-terminal) and anti-FIX(a) (C-terminal); also called VHH1.14-L1-2-VHH2.14-E) DVQLVESGGGVVQPGGSLQLSCAASGGTKRRLAMGWFRQAPGQEREFVAAISRRGGSTNYADSVKGRFTISRDNSKNTVYLQMDSLRPEDTALYYCAADDSVGDGYLDYWGQGTLVTVSSGQAPGQEVQLVESGGGVVQPGGSLQLSCAASGRTFNIYTMSWFRQAPGQEREFVAGLRWTDSSTEYADSVKGRFTISRDNSKNTVYLQMDSLRPEDTALYYCAADRSFLFAQALGATKNYEYWGQGTLVTVSSGQACPC |  |  | 42 | 1.6
Cmpd #8 (anti-FX/anti-FIX(a) VHH polypeptide derivative) (bispecific antibody, C16 diacid protractor (P2) via linker LP1 on Cys4 and Cys6 in C-term extension (SEQ ID NO: 9), Single chain of two VHH: anti-FX (N-terminal) and anti-FIX(a) (C-terminal)) DVQLVESGGGVVQPGGSLQLSCAASGGTKSRYAMGWFRQAPGQEREFVAAISRRGGSTNYADSVKGRFTISRDNSKNTVYLQMDSLRPEDTALYYCAADDSVGDGYLDYWGQGTLVTVSSGQAPGQEVQLVESGGGVVQPGGSLQLSCAASGRTFNIYTMSWFRQAPGQEREFVAGLRWTDSSTEYADSVKGRFTISRDNSKNTVYLQMDSLRPEDTALYYCAADRSFLFAQALGATKNYEYWGQGTLVTVSSGQACPC | 4.8 | 0.27 | 96 | 2.5
Cmpd #11 (anti-FX/anti-FIX(a) VHH polypeptide derivative) (bispecific antibody, C16 diacid protractor (P2) via linker LP1 on Cys4 and Cys6 in C-term extension (SEQ ID NO: 9), Single chain of two VHH: anti-FX (N-terminal) and anti-FIX(a) (C-terminal)) DVQLVESGGGVVQPGGSLQLSCAASGGTKRRLAMGWFRQAPGQEREFVAAISRRGGSTNYADSVKGRFTISRDNSKNTVYLDMDDLRPEDTALYYCAADDSVGDGYLDYWGQGTLVTVSSGQAPGQEVQLVESGGGVVQPGGSLRLSCAASGRTFNIYTMSWFRQDPGQEREFVAGLRWTDSSTEYADSVKGRFTISRDNSKNTVYLQMNSLRPEDTALYYCAADRSFLFAQALGATKNYEYWGQGTLVTVSSGQACPC |  |  | 42 | 6.4
Cmpd #9 (anti-FX/anti-FIX(a) VHH polypeptide derivative) (bispecific antibody, C16 diacid protractor (P2) via linker LP1 on Cys4 and Cys6 in C-term extension (SEQ ID NO: 9), Single chain of two VHH: anti-FX (N-terminal) and anti-FIX(a) (C-terminal)) DVQLVESGGGVVQPGGSLQLSCAASGGTKSRYAMGWFRQAPGQEREFVAAISRRGGSTNYADSVKGRFTISRDNSKNTVYLDMDDLRPEDTALYYCAADDSVGDGYLDYWGQGTLVTVSSGQAPGQEVQLVESGGGVVQPGGSLRLSCAASGRTFNIYTMSWFRQDPGQEREFVAGLRWTDSSTEYADSVKGRFTISRDNSKNTVYLQMNSLRPEDTALYYCAADRSFLFAQALGATKNYEYWGQGTLVTVSSGQACPC |  |  | 70 | 1.1
Cmpd #7 (anti-FX/anti-FIX(a) VHH polypeptide derivative) (bispecific antibody, C16 diacid protractor (P2) via linker LP1 on Cys4 and Cys6 in C-term extension (SEQ ID NO: 9), Single chain of two VHH: anti-FX (N-terminal) and anti-FIX(a) (C-terminal)) DVQLVESGGGVVQPGGSLQLSCAASGGTKSRYAMGWFRQAPGQEREFVAAISRRGGSTNYADSVKGRFTISRDNSKNTVYLQMDSLRPEDTALYYCAADDSVGDGYLDYWGQGTLVTVSSGQAPGQEVQLVESGGGVVQPGGSLRLSCAASGRTFNIYTMSWFRQAPGQEREFVAGLRWTDSSTEYADSVKGRFTISRDNSKNTVYLQMNSLRPEDTALYYCAADRSFLFAQALGATKNYEYWGQGTLVTVSSGQACPC |  |  | 82 | 2.3
Cmpd #13 (anti-FX/anti-FIX(a) VHH polypeptide derivative) (bispecific antibody, C16 diacid protractor (P2) via linker LP1 on Cys4 and Cys6 in C-term extension (SEQ ID NO: 9), Single chain of two VHH: anti-FX (N-terminal) and anti-FIX(a) (C-terminal); also called VHH1.13-L1-2-VHH2.13-E) DVQLVESGGGVVQPGGSLQLSCAASGGTKRRLAMGWFRQAPGQEREWVAAISRRGGSTNYADSVKGRFTISRDNSKNTVYLDMDDLRPEDTALYYCAADDSVGDGYLDYWGQGTLVTVSSGQAPGQEVQLVESGGGVVQPGGSLQLSCAASGRTFNIYTMSWFRQDPGQEREFVAGLRWTDSSTEYADSVKGRFTISRDNSKNTVYLQMDSLRPEDTALYYCAADRSFLFAQALGATKNYEYWGQGTLVTVSSGQACPC | 6.2 | 0.18 | 300 | 2
Cmpd #10 (anti-FX/anti-FIX(a) VHH polypeptide derivative) (bispecific antibody, C16 diacid protractor (P2) via linker LP1 on Cys4 and Cys6 in C-term extension (SEQ ID NO: 9), Single chain of two VHH: anti-FX (N-terminal) and anti-FIX(a) (C-terminal)) DVQLVESGGGVVQPGGSLQLSCAASGGTKRRLAMGWFRQAPGQEREWVAAISRRGGSTNYADSVKGRFTISRDNSKNTVYLQMDSLRPEDTALYYCAADDSVGDGYLDYWGQGTLVTVSSGQAPGQEVQLVESGGGVVQPGGSLRLSCAASGRTFNIYTMSWFRQAPGQEREFVAGLRWTDSSTEYADSVKGRFTISRDNSKNTVYLQMNSLRPEDTALYYCAADRSFLFAQALGATKNYEYWGQGTLVTVSSGQACPC |  |  | 190 | 5.5
Cmpd #12 (anti-FX/anti-FIX(a) VHH polypeptide derivative) (bispecific antibody, C16 diacid protractor (P2) via linker LP1 on Cys4 and Cys6 in C-term extension (SEQ ID NO: 9), Single chain of two VHH: anti-FX (N-terminal) and anti-FIX(a) (C-terminal); also called VHH1.12-L1-2-VHH2.12-E) DVQLVESGGGVVQPGGSLQLSCAASGGTKRRLAMGWFRQAPGQEREFVAAISRRGGSTNYADSVKGRFTISRDNSKNTVYLDMDDLRPEDTALYYCAADDSVGDGYLDYWGQGTLVTVSSGQAPGQEVQLVESGGGVVQPGGSLQLSCAASGRTFNIYTMSWFRQDPGQEREFVAGLRWTDSSTEYADSVKGRFTISRDNSKNTVYLQMDSLRPEDTALYYCAADRSFLFAQALGATKNYEYWGQGTLVTVSSGQACPC |  |  | 26 | 7.8
Cmpd #4 (anti-FX/anti-FIX(a) VHH polypeptide derivative) (bispecific antibody, C18 diacid protractor (P3) via linker LP1 on Cys6 in C-term extension (SEQ ID NO: 7), Single chain of two VHH: anti-FX (N-terminal) and anti-FIX(a) (C-terminal)) DVQLVESGGGVVQPGGSLRLSCAASGRTHSRYAMGWFRQAPGKEREFVAAISRRGGSTNYADSVKGRFTISRDNSKNTVYLQMNSLRPEDTALYYCAADDSSGDGYLDYWGQGTLVTVSSGGGGSGGGSEVQLVESGGGVVQPGGSLRLSCAASGRTFNIYTMSWFRQAPGKEREFVAGLRWTDSSTEYADSVKGRFTISRDNSKNTVYLQMNSLRPEDTALYYCAADRSFLFAQALGATKNYEYWGQGTLVTVSSGGGGSCHHHHHH |  |  | 229 | 11.7
Cmpd #5 (anti-FX/anti-FIX(a) VHH polypeptide derivative) (bispecific antibody, C18 diacid protractor (P3) via linker LP1 on Cys6 in C-term extension (SEQ ID NO: 7), Single chain of two VHH: anti-FX (N-terminal) and anti-FIX(a) (C-terminal)) DVQLVESGGGVVQPGGSLQLSCAASGRTHSRYAMGWFRQAPGQEREFVAAISRRGGSTNYADSVKGRFTISRDNSKNTVYLQMDSLRPEDTALYYCAADDSSGDGYLDYWGQGTLVTVSSGGGGSGGGSEVQLVESGGGVVQPGGSLQLSCAASGRTFNIYTMSWFRQAPGQEREFVAGLRWTDSSTEYADSVKGRFTISRDNSKNTVYLQMDSLRPEDTALYYCAADRSFLFAQALGATKNYEYWGQGTLVTVSSGGGGSCHHHHHH |  |  | 199 | 2.7
